Numbering of substitutions follows the chain as printed. Where two headings read alike, the source gives them in different places.

Holding throughout (assay): BLI (Octet), antibody on AHC sensor
On the technique in general: In BLI a coated tip is dipped into the sample, and binding shifts an interference pattern.

In assay [1] the target is T1, recombinant human ASM protein (human, UniProt P17405 47-630).
T1 construct: Recombinant human ASM in solution; also called acid sphingomyelinase (ASM) protein
T1 sequence: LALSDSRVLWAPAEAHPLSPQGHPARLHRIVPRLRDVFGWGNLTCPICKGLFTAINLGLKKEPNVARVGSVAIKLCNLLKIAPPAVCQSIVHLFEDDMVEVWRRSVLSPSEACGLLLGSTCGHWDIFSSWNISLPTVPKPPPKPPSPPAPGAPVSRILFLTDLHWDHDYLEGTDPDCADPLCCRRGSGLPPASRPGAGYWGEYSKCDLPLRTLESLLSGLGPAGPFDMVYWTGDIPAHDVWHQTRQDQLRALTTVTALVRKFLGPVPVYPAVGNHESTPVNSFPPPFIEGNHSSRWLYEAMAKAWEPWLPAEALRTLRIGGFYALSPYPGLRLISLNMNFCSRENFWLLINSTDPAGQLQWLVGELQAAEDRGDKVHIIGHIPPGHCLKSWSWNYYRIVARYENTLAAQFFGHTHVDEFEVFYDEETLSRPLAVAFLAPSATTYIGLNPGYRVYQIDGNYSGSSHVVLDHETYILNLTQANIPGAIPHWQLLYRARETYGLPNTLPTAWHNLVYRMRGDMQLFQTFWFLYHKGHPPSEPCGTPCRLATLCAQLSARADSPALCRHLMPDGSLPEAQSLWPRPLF
As to the method:
(§1) The binding affinity, to the ASM protein, of the produced antibodies specifically binding to the ASM protein and the interactive dynamics therebetween were measured using an Octet® QK384 system (Pall Life Sciences).
(§2) First, an antibody specifically binding to the ASM protein produced in Example 1 was captured using an anti-human IgG Fc capture (AHC) biosensor, and 1.25, 2.5, 5, 10, or 20 nM recombinant human ASM protein solution was added thereto. […] The association constant (Kₐ), dissociation constant (Kd), and equilibrium dissociation constant (KD) for each antibody were determined using Octet® analysis software (Pall Life® Sciences). As a result, the binding affinities, to the human ASM protein, of the antibodies with mutations in the heavy chain CDR regions of the antibody #9104 as depicted in Table 1 are shown in Table 5, and the binding affinities, to the human ASM protein, of the antibodies with mutations of the light chain CDR regions in the antibody #9104 as depicted in Table 2 are shown in Table 6.

The target in assay [2] is T1, recombinant human ASM protein. The protocol: as §1, §2
After the small-scale expression in the ExpiCHO cell line as described above, the binding affinity to the human ASM protein was investigated as described in Experimental Example 1. Specifically, the antibody produced by a combination of #9104v-H33 heavy chain variable region and #9104v-L23 light chain variable region was not expressed and thus excluded in the analysis of binding affinity to ASM protein.
The source holds these as a separate data set.

For assay [3] the target is unchanged. As to the method:
as §1, §2
This is another data set of the same source.

B1: #9104 (antibody, V domains shown)
VH: EVQLLESGGGLVQPGGSLRLSCAASGFTFSNYYMSWVRQAPGKGLEWVSGIYYGSGNIYYADSVKGRFTISRDNSKNTLYLQMNSLRAEDTAVYYCARDTPGFDYWGQGTLVTVSS
VL: QSVLTQPPSASGTPGQRVTISCTGSSSNIGNNAVNWYQQLPGTAPKLLIYYDSHRPSGVPDRFSGSKSGTSASLAISGLRSEDEADYYCGAWDYSLSAYVFGGGTKLTVLG
notes: Parental antibody; also called antibody #9104
In general, Kd refers to the equilibrium constant for the complex coming apart. The koff is the rate constant with which the complex falls apart. What is called kon is a measure of how fast the partners come together. On to B1, for which, in assay [1], the equilibrium dissociation constant (Kd) came out at 2250 pM, the off-rate (koff) stood at 0.000873 s⁻¹ and the kon is 389000 M⁻¹ s⁻¹. For the same molecule, in assay [2], the Kd came out at 2190 pM, the off-rate constant (koff) amounted to 0.000855 s⁻¹ and the kon was 391000 M⁻¹ s⁻¹. In assay [3], the Kd was determined as 2250 pM, the dissociation rate constant (koff) came out at 0.000873 s⁻¹ and the kon amounted to 389000 M⁻¹ s⁻¹.

B2: #9104v-H25 (antibody, human IgG4 S228P, lambda, V domains shown)
VH: B1 VH with I51T, G54A, N57G
VL: B1 VL
notes: Full-length IgG, lambda
Regarding B2, in assay [1], the equilibrium dissociation constant (Kd) stood at 917 pM, the koff came to 0.00019 s⁻¹ and the kon was 207000 M⁻¹ s⁻¹.

B3: #9104v-H17 (antibody, human IgG4 S228P, lambda, V domains shown)
VH: B1 VH with Q39R, N57T, I58P, D62A
VL: B1 VL
notes: Full-length IgG, lambda
B3: in assay [1], the equilibrium dissociation constant (Kd) came out at 719 pM, the off-rate constant (koff) amounted to 0.000243 s⁻¹ and the on-rate constant (kon) stood at 338000 M⁻¹ s⁻¹.

B4: #9104v-L64 (antibody, human IgG4 S228P, lambda, V domains shown)
VH: B1 VH
VL: B1 VL with S53Y, H54F, R55S, P56H
notes: Full-length IgG, lambda
Turning to B4, in assay [3], the Kd was 505 pM, the off-rate (koff) turned out to be 0.000193 s⁻¹ and the kon was found to be 383000 M⁻¹ s⁻¹.

B5: #9104v-L55 (antibody, human IgG4 S228P, lambda, V domains shown)
VH: B1 VH
VL: B1 VL with S53W, H54Y, S57T
notes: Full-length IgG, lambda
On to B5, for which, in assay [3], the Kd amounted to 879 pM, the koff was 0.00017 s⁻¹ and the kon is 193000 M⁻¹ s⁻¹.

B6: #9104v-H31 (antibody, human IgG4 S228P, lambda, V domains shown)
VH: B1 VH with I51V, N57T, I58P
VL: B1 VL
notes: Full-length IgG, lambda
With B6, in assay [1], the Kd came out at 532 pM, the koff amounted to 0.000141 s⁻¹ and the kon was 266000 M⁻¹ s⁻¹.

B7: #9104v-H22 (antibody, human IgG4 S228P, lambda, V domains shown)
VH: B1 VH with I51L, S55G, N57T, I58P
VL: B1 VL
notes: Full-length IgG, lambda
In the case of B7, in assay [1], the Kd was determined as 798 pM, the koff is 0.000157 s⁻¹ and the kon is 197000 M⁻¹ s⁻¹.

B8: #9104v-H19 (antibody, human IgG4 S228P, lambda, V domains shown)
VH: B1 VH with N57V, I58P
VL: B1 VL
notes: Full-length IgG, lambda
Take B8: in assay [1], the Kd turned out to be 692 pM, the dissociation rate constant (koff) is 0.000184 s⁻¹ and the association rate constant (kon) turned out to be 266000 M⁻¹ s⁻¹.

B9: #9104v-H27 (antibody, human IgG4 S228P, lambda, V domains shown)
VH: B1 VH with I51T, G54D, N57Y, I58V
VL: B1 VL
notes: Full-length IgG, lambda
Consider B9, for which, in assay [1], the Kd stood at 598 pM, the koff amounted to 0.000165 s⁻¹ and the kon was found to be 276000 M⁻¹ s⁻¹.

B10: #9104v-H26 (antibody, human IgG4 S228P, lambda, V domains shown)
VH: B1 VH with I51T, G54A, I58A
VL: B1 VL
notes: Full-length IgG, lambda
As to B10, in assay [1], the Kd was 1740 pM, the dissociation rate constant (koff) worked out at 0.000305 s⁻¹ and the on-rate constant (kon) stood at 175000 M⁻¹ s⁻¹.

B11: #9104v-H18 (antibody, human IgG4 S228P, lambda, V domains shown)
VH: B1 VH with N57T, I58P, A61S
VL: B1 VL
notes: Full-length IgG, lambda
With B11, in assay [1], the dissociation constant Kd was found to be 2690 pM, the off-rate (koff) stood at 0.000264 s⁻¹ and the association rate constant (kon) amounted to 97900 M⁻¹ s⁻¹.

B12: #9104v-H02 (antibody, human IgG4 S228P, lambda, V domains shown)
VH: B1 VH with Y53F, N57D, Y59R
VL: B1 VL
notes: Full-length IgG, lambda
Turning to B12, in assay [1], the Kd was determined as 1200 pM, the off-rate constant (koff) worked out at 0.000333 s⁻¹ and the on-rate (kon) came out at 278000 M⁻¹ s⁻¹.

B13: #9104v-H30 (antibody, human IgG4 S228P, lambda, V domains shown)
VH: B1 VH with I51T, G54S, N57G
VL: B1 VL
notes: Full-length IgG, lambda
Regarding B13, in assay [1], the dissociation constant Kd came to 762 pM, the koff is 0.000151 s⁻¹ and the on-rate (kon) is 199000 M⁻¹ s⁻¹.

B14: #9104v-L65 (antibody, human IgG4 S228P, lambda, V domains shown)
VH: B1 VH
VL: B1 VL with S53Y, H54Y, R55Q, P56S
notes: Full-length IgG, lambda
As to B14, in assay [3], the equilibrium dissociation constant (Kd) worked out at 532 pM, the koff is 0.000192 s⁻¹ and the kon is 360000 M⁻¹ s⁻¹.

B15: #9104v-H33 (antibody, human IgG4 S228P, lambda, V domains shown)
VH: B1 VH with I51V, G54P, I58P
VL: B1 VL
notes: Full-length IgG, lambda
Turning to B15, in assay [1], the Kd was found to be 517 pM, the koff is 0.000108 s⁻¹ and the kon is 208000 M⁻¹ s⁻¹.

B16: #9104v-H10 (antibody, human IgG4 S228P, lambda, V domains shown)
VH: B1 VH with S55N, N57I, I58P, G66D
VL: B1 VL
notes: Full-length IgG, lambda
For B16, in assay [1], the Kd turned out to be 651 pM, the koff is 0.000154 s⁻¹ and the association rate constant (kon) amounted to 237000 M⁻¹ s⁻¹.

B17: #9104v-H13 (antibody, human IgG4 S228P, lambda, V domains shown)
VH: B1 VH with N57I, I58P, D62N
VL: B1 VL
notes: Full-length IgG, lambda
In the case of B17, in assay [1], the Kd turned out to be 803 pM, the koff stood at 0.000185 s⁻¹ and the on-rate constant (kon) came to 231000 M⁻¹ s⁻¹.

B18: #9104v-H24 (antibody, human IgG4 S228P, lambda, V domains shown)
VH: B1 VH with I51L, N57I, I58P
VL: B1 VL
notes: Full-length IgG, lambda
Turning to B18, in assay [1], the equilibrium dissociation constant (Kd) was found to be 1010 pM, the koff stood at 0.000206 s⁻¹ and the kon was 204000 M⁻¹ s⁻¹.

B19: #9104v-H05 (antibody, human IgG4 S228P, lambda, V domains shown)
VH: B1 VH with S55G, G56V, N57K
VL: B1 VL
notes: Full-length IgG, lambda
As for B19, in assay [1], the Kd stood at 1030 pM, the koff is 0.000177 s⁻¹ and the association rate constant (kon) was 171000 M⁻¹ s⁻¹.

B20: #9104v-H14 (antibody, human IgG4 S228P, lambda, V domains shown)
VH: B1 VH with N57K, I58P
VL: B1 VL
notes: Full-length IgG, lambda
Take B20: in assay [1], the dissociation constant Kd came to 857 pM, the koff worked out at 0.000281 s⁻¹ and the kon stood at 328000 M⁻¹ s⁻¹.

B21: #9104v-H11 (antibody, human IgG4 S228P, lambda, V domains shown)
VH: B1 VH with N57I, I58P, G66E
VL: B1 VL
notes: Full-length IgG, lambda
Regarding B21, in assay [1], the Kd came to 781 pM, the off-rate constant (koff) worked out at 0.000195 s⁻¹ and the kon worked out at 250000 M⁻¹ s⁻¹.

B22: #9104v-L63 (antibody, human IgG4 S228P, lambda, V domains shown)
VH: B1 VH
VL: B1 VL with S95W, S97G
notes: Full-length IgG, lambda
In the case of B22, in assay [3], the Kd amounted to 1410 pM, the koff came out at 0.000255 s⁻¹ and the kon is 181000 M⁻¹ s⁻¹.

B23: #9104v-L52 (antibody, human IgG4 S228P, lambda, V domains shown)
VH: B1 VH
VL: B1 VL with S53V, S57R
notes: Full-length IgG, lambda
Turning to B23, in assay [3], the dissociation constant Kd worked out at 982 pM, the koff came to 0.000264 s⁻¹ and the on-rate (kon) amounted to 269000 M⁻¹ s⁻¹.

For the origin of these results see patent US20260201064A1 (ISU ABXIS, published 2026).
